Here are results for 3 substances from publication PMC3537504.

Assay [1] addresses MBP-αII-cardi+ (MBP fusion of repeats 18-21 of αII-spectrin with the 21-amino acid cardi+ insert) (rat). Briefly: far-Western, overlay or dot blot.
The target of assay [2] is GST-βII-spectrin-1-4 (GST fusion of repeats 1-4 of βII-spectrin) (rat). Briefly: SPR.

Regarding “GST-βII-spectrin-1-4 (GST fusion of repeats 1-4 of βII-spectrin) (domain or fragment)”, the binding relative to the αII-cardi− protein (blot overlay, densitometry) in assay [1] was 0.5 fold.
As to “MBP-αII-cardi+ (MBP fusion of repeats 18-21 of αII-spectrin with the 21-amino acid cardi+ insert) (domain or fragment)”, in assay [2], the Kd stood at 1.09 nM and the fold lower binding (response units at saturation) than MBP-αII-cardi− was found to be 2 fold.
The substance “MBP-αII-cardi− (MBP fusion of repeats 18-21 of αII-spectrin without the cardi+ insert) (domain or fragment)” yielded a Kd in assay [2] of 0.57 nM.
